Patent US20180155451A1 (published 2018)
Substitutions are numbered along the chain they refer to.

T1: FcγRIIa R (human, UniProt P12318 34-217)
T1 construct: extracellular domain; also called FcgRIIa R; FcγRIIa type R
T1 sequence (looked up): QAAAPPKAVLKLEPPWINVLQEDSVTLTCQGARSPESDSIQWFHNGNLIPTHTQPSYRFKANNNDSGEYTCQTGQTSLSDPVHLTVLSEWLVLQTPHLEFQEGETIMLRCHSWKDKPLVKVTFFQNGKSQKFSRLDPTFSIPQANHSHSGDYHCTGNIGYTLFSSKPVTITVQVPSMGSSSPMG

T2: FcγRIIb (human, UniProt P31994 43-217)
T2 construct: extracellular domain; also called FcgRIIb
T2 sequence (looked up): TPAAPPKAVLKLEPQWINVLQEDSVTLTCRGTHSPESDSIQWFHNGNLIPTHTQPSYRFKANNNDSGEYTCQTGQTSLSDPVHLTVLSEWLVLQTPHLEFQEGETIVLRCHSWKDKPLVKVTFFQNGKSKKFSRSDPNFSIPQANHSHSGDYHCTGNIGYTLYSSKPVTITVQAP

T3: FcγRIIa H (human, UniProt P12318 34-217)
T3 construct: extracellular domain; Soluble extracellular domain with C-terminal His tag, expressed in FreeStyle293 cells; also called FcgRIIa H; 2aH; not shown: C-terminal His tag
T3 sequence (looked up): T1 sequence (looked up) with R134H

T4: FcγRIIb (human, UniProt P31994 43-217)
T4 construct: extracellular domain; Soluble extracellular domain with C-terminal His tag, expressed in FreeStyle293 cells; also called FcgRIIb; 2b; not shown: C-terminal His tag
T4 sequence (looked up): T2 sequence (looked up)

B1: GpH7-A5/GpH7-B3 variant P329_01G/GpL16-k0 (antibody, human IgG1, kappa)
heavy 1: not shown
heavy 2: not shown
light: DIVMTQSPLSLPVTPGEPASISCQASESLVHSNRNTYLHWYLQKPGQSPQLLIYKVSNRFSGVPDRFSGSGSGTDFTLKISRVEAEDVGVYYCSQNTHVPPTFGQGTKVEIERTVAAPSVFIFPPSDEQLKSGTASVVCLLNNFYPREAKVQWKVDNALQSGNSQESVTEQDSKDSTYSLSSTLTLSKADYEKHKVYACEVTHQGLSSPVTKSFNRGEC
notes: He Ab; IgG1; mutation in one H chain only
B2: GpH7-A5/GpH7-B3 variant S267_03V/GpL16-k0 (antibody, human IgG1, kappa)
heavy 1: not shown
heavy 2: not shown
light: B1 light
notes: Heterodimerized anti-glypican-3 IgG1; alteration in the GpH7-B3 chain only; also called He Ab
B3: GpH7-A5/GpH7-B3 variant N325_19Q/GpL16-k0 (antibody, human IgG1, kappa)
heavy 1: not shown
heavy 2: not shown
light: B1 light
notes: as for B1
B4: GpH7-A5/GpH7-B3 variant P329_04F/GpL16-k0 (antibody, human IgG1, kappa)
heavy 1: not shown
heavy 2: not shown
light: B1 light
notes: as for B1
B5: GpH7-A5/GpH7-B3 variant N325_12R/GpL16-k0 (antibody, human IgG1, kappa)
heavy 1: not shown
heavy 2: not shown
light: B1 light
notes: as for B1
B6: GpH7-A5/GpH7-B3 variant S239_18N/GpL16-k0 (antibody, human IgG1, kappa)
heavy 1: not shown
heavy 2: not shown
light: B1 light
notes: as for B2
B7: GpH7-A5/GpH7-B3 variant P329_09D/GpL16-k0 (antibody, human IgG1, kappa)
heavy 1: not shown
heavy 2: not shown
light: B1 light
notes: He Ab; IgG1; mutation in one H chain only; also called GpH7-A5/GpH7-B14/GpL16-k0
B8: GpH7-A5/GpH7-B3 variant P329_11K/GpL16-k0 (antibody, human IgG1, kappa)
heavy 1: not shown
heavy 2: not shown
light: B1 light
notes: He Ab; IgG1; mutation in one H chain only; also called GpH7-A5/GpH7-B13/GpL16-k0
B9: GpH7-A5/GpH7-B3 variant A330_10E/GpL16-k0 (antibody, human IgG1, kappa)
heavy 1: not shown
heavy 2: not shown
light: B1 light
notes: as for B1
B10: GpH7-A5/GpH7-B3 variant P329_12R/GpL16-k0 (antibody, human IgG1, kappa)
heavy 1: not shown
heavy 2: not shown
light: B1 light
notes: He Ab; IgG1; mutation in one H chain only; also called GpH7-A5/GpH7-B12/GpL16-k0
B11: GpH7-A5/GpH7-B3 variant P329_13S/GpL16-k0 (antibody, human IgG1, kappa)
heavy 1: not shown
heavy 2: not shown
light: B1 light
notes: as for B1
B12: GpH7-A5/GpH7-B3 variant I336_20W/GpL16-k0 (antibody, human IgG1, kappa)
heavy 1: not shown
heavy 2: not shown
light: B1 light
notes: as for B1
B13: GpH7-A5/GpH7-B3 variant A330_03V/GpL16-k0 (antibody, human IgG1, kappa)
heavy 1: not shown
heavy 2: not shown
light: B1 light
notes: as for B1
B14: GpH7-A5/GpH7-B3 variant N325_16H/GpL16-k0 (antibody, human IgG1, kappa)
heavy 1: not shown
heavy 2: not shown
light: B1 light
notes: as for B1
B15: GpH7-A5/GpH7-B3 variant P329_06M/GpL16-k0 (antibody, human IgG1, kappa)
heavy 1: not shown
heavy 2: not shown
light: B1 light
notes: as for B1
B16: GpH7-A5/GpH7-B3 variant P329_07I/GpL16-k0 (antibody, human IgG1, kappa)
heavy 1: not shown
heavy 2: not shown
light: B1 light
notes: as for B1
B17: GpH7-A5/GpH7-B3 variant N325_05P/GpL16-k0 (antibody, human IgG1, kappa)
heavy 1: not shown
heavy 2: not shown
light: B1 light
notes: as for B1
B18: GpH7-A5/GpH7-B3 variant P329_02A/GpL16-k0 (antibody, human IgG1, kappa)
heavy 1: not shown
heavy 2: not shown
light: B1 light
notes: as for B1

What was measured:
FcγRIIa R [1] = target: T1, FcγRIIa R; experiment: He/Con_2aR divided by He/Con_2b (FcγRIIa R over FcγRIIb); SPR (Biacore)
FcγRIIa R [2] = target: T1, FcγRIIa R; experiment: SPR (Biacore), captured antibody, FcγR analyte; binding relative to GpH7-A5/GpH7-B3/GpL16-k0 = 100
FcγRIIb [3] = target: T2, FcγRIIb; experiment: as above
FcγRIIa H = target: T3, FcγRIIa H; experiment: SPR (Biacore), antibody captured, FcγR as analyte; relative to HeCon Ab
FcγRIIb [4] = target: T4, FcγRIIb; experiment: as above

Binder | IIaR/IIb (He_2aR/2b) (FcγRIIa R [1]) | He/Con_2aR (IIaR binding) (FcγRIIa R [2]) | He/Con_2b (IIb binding) (FcγRIIb [3]) | He/Con_2aH (FcγRIIa H) | He/Con_2b (FcγRIIb [4])
B1 | 1.32 ratio | 55 control=100 | 41.7 control=100 | – | –
B2 | – | – | – | 50.8 % of GpH7-A5/GpH7-B3/GpL16-k0 (=100) | 192 % of GpH7-A5/GpH7-B3/GpL16-k0 (=100)
B3 | 1.33 ratio | 92.1 control=100 | 69.1 control=100 | – | –
B4 | 1.39 ratio | 44.7 control=100 | 32.2 control=100 | – | –
B5 | 1.37 ratio | 26.1 control=100 | 19.1 control=100 | – | –
B6 | – | – | – | 94.2 % of GpH7-A5/GpH7-B3/GpL16-k0 (=100) | 119 % of GpH7-A5/GpH7-B3/GpL16-k0 (=100)
B7 | 1.27 ratio | 67.8 control=100 | 53.5 control=100 | – | –
B8 | 1.79 ratio | 30.2 control=100 | 16.9 control=100 | – | –
B9 | 1.23 ratio | 86.6 control=100 | 70.1 control=100 | – | –
B10 | 1.66 ratio | 29.3 control=100 | 17.6 control=100 | – | –
B11 | 1.5 ratio | 61.5 control=100 | 41 control=100 | – | –
B12 | 1.5 ratio | 30.3 control=100 | 20.3 control=100 | – | –
B13 | 1.43 ratio | 74.9 control=100 | 52.4 control=100 | – | –
B14 | 1.27 ratio | 89 control=100 | 70.1 control=100 | – | –
B15 | 1.47 ratio | 42.7 control=100 | 29.1 control=100 | – | –
B16 | 1.44 ratio | 49.6 control=100 | 34.6 control=100 | – | –
B17 | 1.63 ratio | 42.2 control=100 | 26 control=100 | – | –
B18 | 1.45 ratio | 58.9 control=100 | 40.5 control=100 | – | –
